# Measured values reported in publication PMC9531428, “The diurnal emission of floral scent in Oncidium hybrid orchid is controlled by CIRCADIAN CLOCK ASSOCIATED 1 (CCA1) through the direct regulation on terpene synthase” (BMC Plant Biology, 2022).
# T1: terpene synthase (TPS; OncSBTPS) (Oncidium hybrid cultivar, UniProt A0A3R5SMM9)
# T1 construct: recombinant purified protein
# T1 sequence (A0A3R5SMM9 1-551): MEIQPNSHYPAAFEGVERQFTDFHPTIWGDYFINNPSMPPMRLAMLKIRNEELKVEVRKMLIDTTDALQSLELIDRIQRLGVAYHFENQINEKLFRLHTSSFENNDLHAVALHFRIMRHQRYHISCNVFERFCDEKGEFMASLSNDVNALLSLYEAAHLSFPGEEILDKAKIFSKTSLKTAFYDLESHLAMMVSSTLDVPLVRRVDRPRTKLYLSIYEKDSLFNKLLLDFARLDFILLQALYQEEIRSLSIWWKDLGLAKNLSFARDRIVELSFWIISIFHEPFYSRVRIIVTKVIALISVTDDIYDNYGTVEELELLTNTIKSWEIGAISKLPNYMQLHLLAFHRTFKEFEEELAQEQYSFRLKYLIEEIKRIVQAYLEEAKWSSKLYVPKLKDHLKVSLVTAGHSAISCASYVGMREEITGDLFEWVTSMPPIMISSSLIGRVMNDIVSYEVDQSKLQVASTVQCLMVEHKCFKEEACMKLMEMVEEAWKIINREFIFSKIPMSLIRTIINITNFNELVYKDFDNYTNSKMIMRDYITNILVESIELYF
# Key:
# [1] = target: T1, terpene synthase (TPS; OncSBTPS); assay: GC-MS (SPME) of reaction products; assay type: biochemical; conditions: 37 °C, 4 h; products linalool and ocimene
# [2] = target: T2, OncSBCCA1 (Oncidium hybrid Sharry Baby, UniProt A0A7L5RYG3 1-622); assay: EMSA; 0-15 ug CCA1 in 10 uL; BSA; 10 uL with 2 uL 5X buffer (5X: 50 mM Tris-HCl, 750 mM KCl, 2.5 mM EDTA, 62.5% glycerol), i.e. 1X 10 mM Tris-HCl, 150 mM KCl, 0.5 mM EDTA, 12.5% glycerol; BSA; 30 min; pH and temperature not stated; native PAGE in 0.5X TAE, 150 V; conditions: protein: recombinant; tags: His-tag (pET28a); label: 6-FAM (ligated with T4 ligase)
# [3] = target: T2, OncSBCCA1; assay: competition; 50x unlabeled competitor abolished the CCA1-probe signal; 10 uL with 2 uL 5X buffer (5X: 50 mM Tris-HCl, 750 mM KCl, 2.5 mM EDTA, 62.5% glycerol), i.e. 1X 10 mM Tris-HCl, 150 mM KCl, 0.5 mM EDTA, 12.5% glycerol; BSA; 30 min; pH and temperature not stated; native PAGE in 0.5X TAE, 150 V; conditions: protein: recombinant; tags: His-tag (pET28a)
# T2 sequence (A0A7L5RYG3 entry or part of it): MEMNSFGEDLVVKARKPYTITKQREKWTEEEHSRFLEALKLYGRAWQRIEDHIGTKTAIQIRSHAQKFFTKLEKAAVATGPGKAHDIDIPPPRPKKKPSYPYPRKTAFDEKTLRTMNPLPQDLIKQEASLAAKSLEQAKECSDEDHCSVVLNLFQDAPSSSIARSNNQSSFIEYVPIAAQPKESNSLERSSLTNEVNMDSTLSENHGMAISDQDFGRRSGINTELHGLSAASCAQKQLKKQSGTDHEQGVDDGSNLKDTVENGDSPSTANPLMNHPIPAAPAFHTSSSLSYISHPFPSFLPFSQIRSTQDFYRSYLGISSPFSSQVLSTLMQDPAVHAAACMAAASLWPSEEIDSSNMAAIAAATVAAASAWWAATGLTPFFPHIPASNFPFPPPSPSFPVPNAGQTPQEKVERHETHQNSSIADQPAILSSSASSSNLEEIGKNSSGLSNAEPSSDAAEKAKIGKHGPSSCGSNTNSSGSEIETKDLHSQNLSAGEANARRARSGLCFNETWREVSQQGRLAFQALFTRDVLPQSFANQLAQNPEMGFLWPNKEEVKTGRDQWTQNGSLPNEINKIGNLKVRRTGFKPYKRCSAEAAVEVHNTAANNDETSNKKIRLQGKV
molecule,measurement,setting,value
"CC(C)=CCC/C(C)=C/COP(=O)(O)OP(=O)(O)O [GDP, geranyl diphosphate]",GC-MS (SPME) of reaction products,[1],"TPS recombinant protein was purified, then fed with the precursor GDP"
"CBS probe (TPS promoter, 24-mer) (dsDNA) DNA 1: TATTTTAGAGATTTTTACATACAT DNA 2: ATGTATGTAAAAATCTCTAAAATA",binding result,[2],binds
unlabeled CBS competitor (24-mer) (dsDNA) DNA 1: TATTTTAGAGATTTTTACATACAT DNA 2: ATGTATGTAAAAATCTCTAAAATA,binding result,[3],binds
